Publication doi:10.1101/2025.02.27.640518

Target: nCBP-2^L51F (yeast two-hybrid fusion) (cassava)
Assay: two-hybrid

Substance: CBSV Naliendele VPg fused to the B42 transcriptional activation domain (natural protein)
- fold less reporter activity than with nCBP-2: 8 fold
